The supplement of paper PMC7125110
± gives the standard error. Variants at the floor of the assay were thinned out.

B1: glmS ribozyme (parent)
chain: AUAAAAGCGCCAGAACUACAGAAAUGUAGUUGACGAGGAGGAGGUUUAUCGAAUUUUCGGCGGAUGCCUCCAAA

Legend:
Conditions in all cases: with glucosamine-6-phosphate
glucosamine-6-phosphate [1] = variants of: B1; experiment: self-cleavage kobs at 160 uM GlcN6P; higher = faster cleavage; RNA array
Summary of the method: (§1)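 Glucosamine-6-phosphate in HEPES/KCl/Mg(OAc)2 buffer, at 40 μM to 10 mM, was flowed over barcoded ribozyme variants transcribed in situ by E. coli RNA polymerase on sequenced MiSeq chips. Tracking was through a hybridised Cy3 probe at 37 °C. kobs, kcat and KM came from exponential decay fits and weighted Michaelis–Menten fits of normalised per-tile medians.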

glucosamine-6-phosphate [2] = variants of: B1; experiment: self-cleavage kobs at 640 uM GlcN6P; higher = faster cleavage; RNA array
Summary of the method: as §1

glucosamine-6-phosphate [3] = variants of: B1; experiment: self-cleavage kobs at 2500 uM GlcN6P; higher = faster cleavage; RNA array
Summary of the method: as §1

glucosamine-6-phosphate [4] = variants of: B1; experiment: self-cleavage kobs at 10000 uM GlcN6P; higher = faster cleavage; RNA array
Summary of the method: as §1

Variant | self-cleavage kobs at 160 uM GlcN6P (glucosamine-6-phosphate [1]) | self-cleavage kobs at 640 uM GlcN6P (glucosamine-6-phosphate [2]) | self-cleavage kobs at 2500 uM GlcN6P (glucosamine-6-phosphate [3]) | self-cleavage kobs at 10000 uM GlcN6P (glucosamine-6-phosphate [4])
G51C A53G | < 1e-05 s⁻¹ | < 1e-05 s⁻¹ | < 1e-05 s⁻¹ | 
G37C G43C U47C | < 1e-05 s⁻¹ |  | < 1e-05 s⁻¹ | 
C50U A52G C70A | 5.11e-05 ± 2.3e-05 s⁻¹ | 0.000125 ± 3.7e-05 s⁻¹ | 6.9e-05 ± 2.3e-05 s⁻¹ | 
A42U U55A G60A C71G | < 1e-05 s⁻¹ | < 1e-05 s⁻¹ | < 1e-05 s⁻¹ | 
C34A C50G | 5.9e-05 ± 1.6e-05 s⁻¹ | 0.000448 ± 0.00021 s⁻¹ |  | 
A6U C11A G13U | < 1e-05 s⁻¹ |  |  | 
G29U G44C | < 1e-05 s⁻¹ |  |  | 
G40C G59U | < 1e-05 s⁻¹ | < 1e-05 s⁻¹ | < 1e-05 s⁻¹ | 
A14U G43U U46A | < 1e-05 s⁻¹ | < 1e-05 s⁻¹ | < 1e-05 s⁻¹ | 
A6G C10G U46G | < 1e-05 s⁻¹ | < 1e-05 s⁻¹ | < 1e-05 s⁻¹ | 
G38C G51U U57C | < 1e-05 s⁻¹ |  | < 1e-05 s⁻¹ | 
A6G A12C G40A | < 1e-05 s⁻¹ | < 1e-05 s⁻¹ | < 1e-05 s⁻¹ | 
C8A G60A C68A | < 1e-05 s⁻¹ |  | < 1e-05 s⁻¹ | 
C8A G9U C19A G29C C34A A48C | < 1e-05 s⁻¹ |  | < 1e-05 s⁻¹ | 
A12G G35U A42C A48C U57C | < 1e-05 s⁻¹ |  |  | 
C10U C11U G13A | < 1e-05 s⁻¹ | < 1e-05 s⁻¹ | < 1e-05 s⁻¹ | 
G7C A53C | < 1e-05 s⁻¹ | < 1e-05 s⁻¹ | < 1e-05 s⁻¹ | 
G37C G51U | < 1e-05 s⁻¹ |  |  | < 1e-05 s⁻¹
A14G G35U G66U | < 1e-05 s⁻¹ | < 1e-05 s⁻¹ |  | 
G13A G35U G66U C67G | < 1e-05 s⁻¹ |  | < 1e-05 s⁻¹ | 
A42U A52C C67A | < 1e-05 s⁻¹ |  |  | 
C61U C67U | < 1e-05 s⁻¹ | < 1e-05 s⁻¹ |  | 
A12U G29A A53G G62A | < 1e-05 s⁻¹ | < 1e-05 s⁻¹ | < 1e-05 s⁻¹ | 
A14C A15U C70A | 0.000105 ± 3.4e-05 s⁻¹ | 0.000263 ± 5.6e-05 s⁻¹ | 0.000232 ± 8.4e-05 s⁻¹ | 
A6G C67U C71U | < 1e-05 s⁻¹ |  |  | 
G7U G40U | < 1e-05 s⁻¹ | < 1e-05 s⁻¹ | < 1e-05 s⁻¹ | < 1e-05 s⁻¹

Variant | self-cleavage kobs at 160 uM GlcN6P (glucosamine-6-phosphate [1]) | self-cleavage kobs at 640 uM GlcN6P (glucosamine-6-phosphate [2]) | self-cleavage kobs at 2500 uM GlcN6P (glucosamine-6-phosphate [3]) | self-cleavage kobs at 10000 uM GlcN6P (glucosamine-6-phosphate [4])
U47A G66A | 0.00046 ± 0.00012 s⁻¹ | 0.00249 ± 0.00067 s⁻¹ | 0.00842 ± 0.0039 s⁻¹ | 
A6G A42C | < 1e-05 s⁻¹ | < 1e-05 s⁻¹ | < 1e-05 s⁻¹ | < 1e-05 s⁻¹
A12C G51U C58G C61A | < 1e-05 s⁻¹ |  |  | 
A6U G37C C71U | < 1e-05 s⁻¹ |  |  | 
A12G G40A A42C | < 1e-05 s⁻¹ |  | < 1e-05 s⁻¹ | 
A36G G60C | < 1e-05 s⁻¹ | < 1e-05 s⁻¹ | < 1e-05 s⁻¹ | < 1e-05 s⁻¹
A6U G43C U57G C67U | < 1e-05 s⁻¹ |  | < 1e-05 s⁻¹ | < 1e-05 s⁻¹
G9U C16U G29A U45A U54C | < 1e-05 s⁻¹ |  |  | 
C16A G60C C67G | < 1e-05 s⁻¹ |  | < 1e-05 s⁻¹ | 
U31G U45C C67G | 0.000177 ± 7.3e-05 s⁻¹ |  | 0.00223 ± 0.0006 s⁻¹ | 
A14U G35C U49G | < 1e-05 s⁻¹ |  |  | 
C10A G13U A15G G40U U46G | < 1e-05 s⁻¹ | < 1e-05 s⁻¹ | < 1e-05 s⁻¹ | 
A64G G66U C70U | 0.000115 ± 2.1e-05 s⁻¹ | 0.000373 ± 9.3e-05 s⁻¹ | 0.000872 ± 0.00017 s⁻¹ | 
G32A A42U | < 1e-05 s⁻¹ | < 1e-05 s⁻¹ |  | 
G43U G59U G63U C68A | < 1e-05 s⁻¹ | < 1e-05 s⁻¹ | < 1e-05 s⁻¹ | 
C16U G41C G43C A48U U57C | < 1e-05 s⁻¹ |  | < 1e-05 s⁻¹ | 
A6U G43U U57A | < 1e-05 s⁻¹ | < 1e-05 s⁻¹ | < 1e-05 s⁻¹ | 
G51U A53U | < 1e-05 s⁻¹ | < 1e-05 s⁻¹ | < 1e-05 s⁻¹ | < 1e-05 s⁻¹
G9C U56C C67U C71G | < 1e-05 s⁻¹ | < 1e-05 s⁻¹ | < 1e-05 s⁻¹ | 
G43U C61G C71U | < 1e-05 s⁻¹ |  |  | 
A52G G60A | < 1e-05 s⁻¹ |  |  | < 1e-05 s⁻¹
G13U C34G | < 1e-05 s⁻¹ | < 1e-05 s⁻¹ | < 1e-05 s⁻¹ | < 1e-05 s⁻¹
U45A A53U U65A | 0.000624 ± 0.00014 s⁻¹ | 0.0024 ± 0.00081 s⁻¹ | 0.00652 ± 0.0016 s⁻¹ | 
A52G C61U C68G | 0.000141 ± 4.2e-05 s⁻¹ | 0.000189 ± 6.4e-05 s⁻¹ |  | 
A33G G41A C70A | < 1e-05 s⁻¹ | < 1e-05 s⁻¹ |  | < 1e-05 s⁻¹
A33U A36U | < 1e-05 s⁻¹ | < 1e-05 s⁻¹ | < 1e-05 s⁻¹ | < 1e-05 s⁻¹
